Data reported in patent US20180155451A1 (published 2018).

T1: FcgRIIa R (human, UniProt P12318 34-217)
T1 construct: extracellular domain; also called FcγRIIa R; FcγRIIa type R; not shown: His tag attached to the C terminus
T1 sequence (looked up): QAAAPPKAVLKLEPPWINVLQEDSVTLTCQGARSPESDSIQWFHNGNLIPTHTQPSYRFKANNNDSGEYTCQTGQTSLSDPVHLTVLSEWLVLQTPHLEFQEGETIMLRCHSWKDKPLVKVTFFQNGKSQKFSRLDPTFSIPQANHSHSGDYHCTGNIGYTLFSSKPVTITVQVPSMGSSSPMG

T2: FcgRIIa H (human, UniProt P12318 34-217)
T2 construct: extracellular domain; also called FcγRIIa H; FcγRIIa type H; not shown: His tag attached to the C terminus
T2 sequence (looked up): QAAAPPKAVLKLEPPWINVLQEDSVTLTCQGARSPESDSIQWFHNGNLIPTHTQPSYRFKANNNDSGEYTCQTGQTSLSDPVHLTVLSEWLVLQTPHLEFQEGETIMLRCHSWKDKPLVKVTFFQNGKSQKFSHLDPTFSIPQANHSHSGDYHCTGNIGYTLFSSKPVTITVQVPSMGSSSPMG

T3: FcgRIIb (human, UniProt P31994 43-217)
T3 construct: extracellular domain; also called FcγRIIb; not shown: His tag attached to the C terminus
T3 sequence (looked up): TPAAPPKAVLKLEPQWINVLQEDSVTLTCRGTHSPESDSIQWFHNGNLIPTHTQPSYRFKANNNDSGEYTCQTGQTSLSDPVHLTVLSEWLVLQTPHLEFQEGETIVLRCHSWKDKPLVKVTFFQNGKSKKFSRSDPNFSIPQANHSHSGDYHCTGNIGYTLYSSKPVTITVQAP


Legend:
Assay in all cases: SPR (Biacore); KD of H240-Kn061/H240-Hl071/L73-k0 divided by KD of the variant
FcgRIIa R = target: T1, FcgRIIa R
Description: (§1) The antibodies were assessed for the binding to each FcgR. […] The resultant value was defined as relative KD, and used as an assessment indicator.
(§2) Analysis of interaction between obj ective antibody and the FcγR was carried out using Biacore T100 (GE Healthcare), Biacore T200, Biacore A100, and Biacore 4000. HBS-EP+ (GE Healthcare) was used as the running buffer, and the measurement temperature was set to 25° C. Chips produced by immobilizing the antigen peptide by the amine coupling method to a Series S sensor Chip CM5 (GE Healthcare), chips produced by allowing preliminarily biotinylated antigen peptides to interact with and immobilize onto a Series S Sensor Chip SA (certified) (GE Healthcare), chips produced by immobilizing Protein L (ACTIGEN, BioVision) to Series S Sencor Chip CM5 (GE Healthcare), or chips produced by immobilizing Protein A/G (Thermo Scientific) to Series S Sencor Chip CM5 (GE Healthcare) were used. Antibodies of interest were captured onto these chips, and allowed to interact to each FcγR diluted with running buffer.

FcgRIIa H = target: T2, FcgRIIa H
Description: as §1, §2

FcgRIIb = target: T3, FcgRIIb
Description: as §1, §2

FcgRIIIa F = target: T4, FcgRIIIa F (human, UniProt P08637 17-208)
T4 construct: extracellular domain; also called FcγRIIIa F; 3aF; not shown: His tag attached to the C terminus
T4 sequence (P08637 17-208): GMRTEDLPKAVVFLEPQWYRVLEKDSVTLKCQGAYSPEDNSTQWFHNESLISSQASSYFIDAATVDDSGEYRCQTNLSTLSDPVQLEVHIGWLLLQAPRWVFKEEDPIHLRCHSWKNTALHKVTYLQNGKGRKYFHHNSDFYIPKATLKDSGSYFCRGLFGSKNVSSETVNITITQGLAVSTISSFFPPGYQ
Description: as §1, §2

FcgRIIIa V = target: T5, FcgRIIIa V (human, UniProt P08637 17-208)
T5 construct: extracellular domain; also called FcγRIIIa V; not shown: His tag attached to the C terminus
T5 sequence (P08637 17-208 F176V limits assumed): as the sequence (P08637 17-208) above, with F160V counted along it
Description: as §1, §2

Relative KD (FcgRIIa R)	Relative KD (FcgRIIa H)	Relative KD (FcgRIIb)	Relative KD (FcgRIIIa F)	Relative KD (FcgRIIIa V)	Binder
3.8	3.5	1.1	0.8	0.7	H240-Kn061/H240-Hl071 (F241N)/L73-k0 (antibody, human IgG1, kappa) heavy 1: QDQLVQSGAEVKKPGASVKVSCKASGFNIKDTYIQWVRQAPGQGLEWMGRIDPLRKQTKYREKFEGRVTITADTSTNTAYMELSSLRSEDTAVYYCVRSGREFDYWGQGTLVTVSSASTKGPSVFPLAPSSKSTSGGTAALGCLVKDYFPEPVTVSWNSGALTSGVHTFPAVLQSSGLYSLSSVVTVPSSSLGTQTYICNVNHKPSNTKVDKKVEPKSCDKTHTCPPCPAPEYYWGPSVFLFPPKPKDTLMISRTPEVTCVVVDVSDEDPEVKFNWYVDGVEVHNAKTKPREEQYNATYRVVSVLTVLHQDWLNGKEYKCKVSNKALPAPIEKTISKAKGQPREPQVCTLPPSRDELTKNQVSLWCLVKGFYPSDIAVEWESNGQPENNYKTTPPVLDSDGSFFLYSKLTVDKSRWQQGNVFSCSVMHEALHNHYTQKSLSLSP heavy 2: QDQLVQSGAEVKKPGASVKVSCKASGFNIKDTYIQWVRQAPGQGLEWMGRIDPLRKQTKYREKFEGRVTITADTSTNTAYMELSSLRSEDTAVYYCVRSGREFDYWGQGTLVTVSSASTKGPSVFPLAPSSKSTSGGTAALGCLVKDYFPEPVTVSWNSGALTSGVHTFPAVLQSSGLYSLSSVVTVPSSSLGTQTYICNVNHKPSNTKVDKKVEPKSCDKTHTCPPCPAPELLGGPSVNLFPPKPKDTLMISRTPEVTCVVVDVSHEDPEVKFNWYVDGVEVHNAKTKPREEQYNSTYRVVSVLTVLHQDWLNGKEYKCKVSNDALPMPIEETISKAKGQPREPQVYTLPPSRCELTKNQVSLSCAVKGFYPSDIAVEWESNGQPENNYKTTPPVLDSDGSFFLVSKLTVDKSRWQQGNVFSCSVMHEALHNHYTQKSLSLSP light: DIQMTQSPSSLSASVGDRVTITCRASQDIHKYIAWYQQKPGQAPRLLIQYTSTLQPGVPSRFSGSGSGTDYTFTISSLQPEDIATYYCLQYEQLRTFGGGTKVEIKRTVAAPSVFIFPPSDEQLKSGTASVVCLLNNFYPREAKVQWKVDNALQSGNSQESVTEQDSKDSTYSLSSTLTLSKADYEKHKVYACEVTHQGLSSPVTKSFNRGEC
2.2	1.5	3.5	1.1	1.2	H240-Kn061 (Y234L)/H240-Hl071/L73-k0 (antibody, human IgG1, kappa) heavy 1: QDQLVQSGAEVKKPGASVKVSCKASGFNIKDTYIQWVRQAPGQGLEWMGRIDPLRKQTKYREKFEGRVTITADTSTNTAYMELSSLRSEDTAVYYCVRSGREFDYWGQGTLVTVSSASTKGPSVFPLAPSSKSTSGGTAALGCLVKDYFPEPVTVSWNSGALTSGVHTFPAVLQSSGLYSLSSVVTVPSSSLGTQTYICNVNHKPSNTKVDKKVEPKSCDKTHTCPPCPAPELYWGPSVFLFPPKPKDTLMISRTPEVTCVVVDVSDEDPEVKFNWYVDGVEVHNAKTKPREEQYNATYRVVSVLTVLHQDWLNGKEYKCKVSNKALPAPIEKTISKAKGQPREPQVCTLPPSRDELTKNQVSLWCLVKGFYPSDIAVEWESNGQPENNYKTTPPVLDSDGSFFLYSKLTVDKSRWQQGNVFSCSVMHEALHNHYTQKSLSLSP heavy 2: QDQLVQSGAEVKKPGASVKVSCKASGFNIKDTYIQWVRQAPGQGLEWMGRIDPLRKQTKYREKFEGRVTITADTSTNTAYMELSSLRSEDTAVYYCVRSGREFDYWGQGTLVTVSSASTKGPSVFPLAPSSKSTSGGTAALGCLVKDYFPEPVTVSWNSGALTSGVHTFPAVLQSSGLYSLSSVVTVPSSSLGTQTYICNVNHKPSNTKVDKKVEPKSCDKTHTCPPCPAPELLGGPSVFLFPPKPKDTLMISRTPEVTCVVVDVSHEDPEVKFNWYVDGVEVHNAKTKPREEQYNSTYRVVSVLTVLHQDWLNGKEYKCKVSNDALPMPIEETISKAKGQPREPQVYTLPPSRCELTKNQVSLSCAVKGFYPSDIAVEWESNGQPENNYKTTPPVLDSDGSFFLVSKLTVDKSRWQQGNVFSCSVMHEALHNHYTQKSLSLSP light: DIQMTQSPSSLSASVGDRVTITCRASQDIHKYIAWYQQKPGQAPRLLIQYTSTLQPGVPSRFSGSGSGTDYTFTISSLQPEDIATYYCLQYEQLRTFGGGTKVEIKRTVAAPSVFIFPPSDEQLKSGTASVVCLLNNFYPREAKVQWKVDNALQSGNSQESVTEQDSKDSTYSLSSTLTLSKADYEKHKVYACEVTHQGLSSPVTKSFNRGEC

Second part, the binder before the results:

Binder	Relative KD (FcgRIIa R)	Relative KD (FcgRIIa H)	Relative KD (FcgRIIb)	Relative KD (FcgRIIIa F)	Relative KD (FcgRIIIa V)
H240-Kn061 (S239V)/H240-Hl071/L73-k0 (antibody, human IgG1, kappa) heavy 1: QDQLVQSGAEVKKPGASVKVSCKASGFNIKDTYIQWVRQAPGQGLEWMGRIDPLRKQTKYREKFEGRVTITADTSTNTAYMELSSLRSEDTAVYYCVRSGREFDYWGQGTLVTVSSASTKGPSVFPLAPSSKSTSGGTAALGCLVKDYFPEPVTVSWNSGALTSGVHTFPAVLQSSGLYSLSSVVTVPSSSLGTQTYICNVNHKPSNTKVDKKVEPKSCDKTHTCPPCPAPEYYWGPVVFLFPPKPKDTLMISRTPEVTCVVVDVSDEDPEVKFNWYVDGVEVHNAKTKPREEQYNATYRVVSVLTVLHQDWLNGKEYKCKVSNKALPAPIEKTISKAKGQPREPQVCTLPPSRDELTKNQVSLWCLVKGFYPSDIAVEWESNGQPENNYKTTPPVLDSDGSFFLYSKLTVDKSRWQQGNVFSCSVMHEALHNHYTQKSLSLSP heavy 2: QDQLVQSGAEVKKPGASVKVSCKASGFNIKDTYIQWVRQAPGQGLEWMGRIDPLRKQTKYREKFEGRVTITADTSTNTAYMELSSLRSEDTAVYYCVRSGREFDYWGQGTLVTVSSASTKGPSVFPLAPSSKSTSGGTAALGCLVKDYFPEPVTVSWNSGALTSGVHTFPAVLQSSGLYSLSSVVTVPSSSLGTQTYICNVNHKPSNTKVDKKVEPKSCDKTHTCPPCPAPELLGGPSVFLFPPKPKDTLMISRTPEVTCVVVDVSHEDPEVKFNWYVDGVEVHNAKTKPREEQYNSTYRVVSVLTVLHQDWLNGKEYKCKVSNDALPMPIEETISKAKGQPREPQVYTLPPSRCELTKNQVSLSCAVKGFYPSDIAVEWESNGQPENNYKTTPPVLDSDGSFFLVSKLTVDKSRWQQGNVFSCSVMHEALHNHYTQKSLSLSP light: DIQMTQSPSSLSASVGDRVTITCRASQDIHKYIAWYQQKPGQAPRLLIQYTSTLQPGVPSRFSGSGSGTDYTFTISSLQPEDIATYYCLQYEQLRTFGGGTKVEIKRTVAAPSVFIFPPSDEQLKSGTASVVCLLNNFYPREAKVQWKVDNALQSGNSQESVTEQDSKDSTYSLSSTLTLSKADYEKHKVYACEVTHQGLSSPVTKSFNRGEC	4.2	2.4	3.4	2.4	2.9
H240-Kn061 (Y234I)/H240-Hl071/L73-k0 (antibody, human IgG1, kappa) heavy 1: QDQLVQSGAEVKKPGASVKVSCKASGFNIKDTYIQWVRQAPGQGLEWMGRIDPLRKQTKYREKFEGRVTITADTSTNTAYMELSSLRSEDTAVYYCVRSGREFDYWGQGTLVTVSSASTKGPSVFPLAPSSKSTSGGTAALGCLVKDYFPEPVTVSWNSGALTSGVHTFPAVLQSSGLYSLSSVVTVPSSSLGTQTYICNVNHKPSNTKVDKKVEPKSCDKTHTCPPCPAPEIYWGPSVFLFPPKPKDTLMISRTPEVTCVVVDVSDEDPEVKFNWYVDGVEVHNAKTKPREEQYNATYRVVSVLTVLHQDWLNGKEYKCKVSNKALPAPIEKTISKAKGQPREPQVCTLPPSRDELTKNQVSLWCLVKGFYPSDIAVEWESNGQPENNYKTTPPVLDSDGSFFLYSKLTVDKSRWQQGNVFSCSVMHEALHNHYTQKSLSLSP heavy 2: QDQLVQSGAEVKKPGASVKVSCKASGFNIKDTYIQWVRQAPGQGLEWMGRIDPLRKQTKYREKFEGRVTITADTSTNTAYMELSSLRSEDTAVYYCVRSGREFDYWGQGTLVTVSSASTKGPSVFPLAPSSKSTSGGTAALGCLVKDYFPEPVTVSWNSGALTSGVHTFPAVLQSSGLYSLSSVVTVPSSSLGTQTYICNVNHKPSNTKVDKKVEPKSCDKTHTCPPCPAPELLGGPSVFLFPPKPKDTLMISRTPEVTCVVVDVSHEDPEVKFNWYVDGVEVHNAKTKPREEQYNSTYRVVSVLTVLHQDWLNGKEYKCKVSNDALPMPIEETISKAKGQPREPQVYTLPPSRCELTKNQVSLSCAVKGFYPSDIAVEWESNGQPENNYKTTPPVLDSDGSFFLVSKLTVDKSRWQQGNVFSCSVMHEALHNHYTQKSLSLSP light: DIQMTQSPSSLSASVGDRVTITCRASQDIHKYIAWYQQKPGQAPRLLIQYTSTLQPGVPSRFSGSGSGTDYTFTISSLQPEDIATYYCLQYEQLRTFGGGTKVEIKRTVAAPSVFIFPPSDEQLKSGTASVVCLLNNFYPREAKVQWKVDNALQSGNSQESVTEQDSKDSTYSLSSTLTLSKADYEKHKVYACEVTHQGLSSPVTKSFNRGEC	4.1	2.6	7.7	1.2	1.3
